{"source": "patent US20190031759A1", "about": "(TECHNION RESEARCH AND DEVELOPMENT FOUNDATION, published 2019)", "binders": {"B1": {"name": "F2 anti-HLA-A2/WT1Db126 TCR-like recombinant Fab antibody (Fab, V domains shown)", "VH": "QVQLVQSGGGLVKPGGSLRLSCAASGFTFSSYSMNWVRQAPGKGLEWVSSISSSSSYIYYADSVKGRFTISRDNAKNSLYLQMNSLRAEDTAVYYCARGDYYGLTFDPWGQGTLVTV", "VL": "LNFMLTQPHSVSESPGKTVTISCTRSSGSIASNYVQWYQQRPGSSPTTVIYEDNQRPSGVPDRFSGSIDSSSNSASLTISGLKTEDEADYYCQSYDSSNQNWVFGGGTKLTVLS", "notes": "Soluble human Fab from a naive phage Fab library, expressed in E. coli and purified on a TALON column; also called F2 Fab; F2 TCRL"}, "B2": {"name": "F3 anti-HLA-A2/WT1Db126 TCR-like recombinant Fab antibody (Fab, V domains shown)", "VH": "EVQLVQSGAEVKKTGSSVKVSCKASGYTFTYRYLHWARQAPGQALEWMGWITPFNGNTNYAQKFQDRVTITRDRSMSTAYMELSSLRSEDTAMYYCASSAYDAFDIWGQGTMVTV", "VL": "LSSELTQDPAVSVALGQTVKITCQGDSLRIHYASWYQQKPGQAPVLVIYGKDNRPSGIPDRFSGSSSGTSASLTITGARAEDEADYYCNSRDNSGDHVLFGGGTKLTVV", "notes": "Soluble human Fab from a naive phage Fab library; also called F3 Fab; F3 TCRL"}}, "biological_target": "recombinant single-chain HLA-A2-WT1Db126 complex (soluble, biotinylated scMHC-peptide complex) (human, site-specific biotinylation at the BirA recognition sequence at the carboxyl-terminus)", "experiment": "SPR (ProteOn XPR36), soluble HLA-A2/WT1Db126 complexes on chip-immobilized Fabs coupled through an anti-human Fab"}
{"binder": "B1", "values": [{"measurement": "Kd", "value": 400, "unit": "nM"}]}
{"binder": "B2", "values": [{"measurement": "Kd", "value": 30, "unit": "nM"}]}
